Patent US20220356230A1 (published 2022)
Numbering of substitutions follows the chain as printed.

B1: mAb10921 (antibody, V domains shown)
VH: EVQLVESGGGLVQPGGSLRLSCAASGITVSSNYMSWVRQAPGKGLEWVSVIYSGGSTFYADSVKGRFTISRHNSKNTLYLQMNSLRAEDTAVYYCARERNFDAFDIWGQGTMVTVSS
VL: DIQMTQSPSSVSASVGDRVTITCRASQGISSWLAWYQQKPGKAPKLLIYAASSLQSGVPSRFSGSGSGTDFTLTISSLQPEDFATYYCQQANSFPLFTFGPGTKVDIKR
B2: mAb10957 (antibody, V domains shown)
VH: EVQLVESGGGLVQPGGSLRLSCAASGVTVSSNYMSWVRQAPGKGLEWVSVIYSGGSTFYADSVKGRFTISRDNSKNTLFLQMNSLRIEDTAVYYCARDLGPYGMDVWGQGTTVTVSS
VL: B1 VL with M4L, S10F, V11L, W32Y, S53T, D70Q, T72I, A91L, F94Y, L96G
B3: mAb10913 (antibody, V domains shown)
VH: EVQLVESGGGLVQPGGSLRLSCAASGFTFRNYEMNWVRQAPGKGLEWVSYITSSGSTMYYADSVKGRFTISRDNAKNSLYLQMNSLRAEDTAVYYCARDGFYYYYAMDVWGQGTTVTVSS
VL: QSVLTQPPSVSAAPGQKVTISCSGSSSNIGNNYVSWYQQLPGTAPKLLIYDNNKRPSGIPDRFSGSKSGTSATLGITGLQTGDEADYYCGTWDSSLSVGRVFGTGTKVTVLG
B4: mAb10964 (antibody, V domains shown)
VH: QVQLQESGPGLVKPSETLSLTCTVSGGSINNYYWIWIRQPPGKGLEWIGYIYHSGSTNYNPSLKSRVTISVDTSKNQFSLKVSSVTAADTAVYYCANMVRGVYEDDYWGQGTLVTVSS
VL: DIQMTQSPSSLSASVGDRVTITCRASQSISNYLNWYQQKPGKAPKLLIFAASSLRSGVPSRFSGSGSGTDFTLTISSLHPEDFATYYCQQNYNTPLTFGPGTKVDIKR
B5: mAb10932 (antibody, V domains shown)
VH: EVQLVESGGGLVQSGGSLRLSCAASGLTVSSNYMSWVRQAPGKGLEWVSVIYSGGSTFYSDSVKGRFTISRHNSKNTLYLQMNSLRAEDTAVYYCARARGDAFDIWGQGTMVTVSS
VL: not shown
B6: mAb10989 (antibody, V domains shown)
VH: QVQLVQSGAEVKKPGASVKVSCKASGYIFTGYYMHWVRQAPGQGLEWMGWINPNSGGANYAQKFQGRVTLTRDTSITTVYMELSRLRFDDTAVYYCARGSRYDWNQNNWFDPWGQGTLVTVSS
VL: QSALTQPASVSGSPGQSITISCTGTSSDVGTYNYVSWYQQHPGKAPKLMIFDVSNRPSGVSDRFSGSKSGNTASLTISGLQAEDEADYYCSSFTTSSTVVFGGGTKLTVLG
B7: mAb10930 (antibody, V domains shown)
VH: EVQLVESGGGLVQPGRSLRLSCAASGFTFDDYAMYWVRQAPGKGLEWVSGISWNSGSIGYADSVKGRFTISRDNAKNSLYLQMNSLRAADTALYYCAKDKDWNSRGYYYYGMDVWGQGTTVTVSS
VL: not shown
B8: mAb10937 (antibody, V domains shown)
VH: QITLKESGPTLVKPTQTLTLTCTFSGFSLSTNVVGVGWIRQPPGKALEWLALIYWNDDKRYSPSLKSRLTITKDTSKNQVVLTMTNMDPVDTATYYCAHGPTGDYFDYWGQGTLVTVSS
VL: not shown
B9: mAb10966 (antibody, V domains shown)
VH: EVQLVESGGGLVQPGGSLRLSCAASGLTVSSNYMSWVRQAPGKGLEWVSVIYSGGSTFYADSVKGRFTISRDNSKNTLYLQMNSLRPEDTAVYYCAREGRIAATGYGMDVWGQGTTVTVSS
VL: not shown
B10: mAb10939 (antibody, V domains shown)
VH: EVQLVESGGGLVQPGGSLRLSCAASGLTVSSNYMNWVRQVPGKGLEWVSVIYSGGSKFYVDSVKGRFTISRHNSKNTLYLQMNSLRPEDTAVYYCTRDAQYYGMDVWGQGTTVTVSS
VL: DIQMTQSPSSLSASVGDRVTITCRASQSISTYLHWYQQKPGEAPKLLIYAASSLQSGVPSRFSGSGSGTDFTLTISSLQPEDFATYYCQQSYSTPPEIFGQGTKLEIKR
B11: mAb10956 (antibody, V domains shown)
VH: B2 VH with V27L, F79Y, I87A, G100I, P101K
VL: not shown
B12: mAb10982 (antibody, V domains shown)
VH: EVQLVESGGGLVQPGGSLRLSCAASGLTVSSNYMSWVRQAPGKGLEWVSVIYSGGTTYYADSVKGRFTISRHNSKNTLSLQMNSLRAEDTAVYYCARGEGANYYGMDVWGQGTTVTVSS
VL: QSVLTQPPSVSGAPGQRVTISCTGSSSNIGTGYDVHWYQQLPGTAPKLLIYGNSNRPSGVPDRFSGSKSGTSASLAITGLQAEDEADYYCQSYDSSLSGYVVFGGGTKLTVLG
B13: mAb10985 (antibody, V domains shown)
VH: EVQLVESGGGLVQPGRSLRLSCAASGFTFDDYAMHWVRQAPGKGLEWVSGISWNRGSIGYADSVKGRFTISRDNAKNSLYLQMSSLRAEDTALYYCAKDGERWDSVVVPSARNGMDVWGQGTTVTVSS
VL: B12 VL with T31A, Y100S, V101Y, G105T, L109V
B14: mAb10986 (antibody, V domains shown)
VH: EVQLVESGGGLVQPGGSLRLSCAASEFTVSSNYMSWVRQAPGKGLEWVSVIYSGGSTFYADSVKGRFTISRDNSKNTLYLQMNSLRAEDTAVYYCARALPYGDLHFDYWGQGTLVTVSS
VL: B12 VL with S54T, G99D, Y100S, V101Y, G105T, L109V
B15: mAb10934 (antibody, V domains shown)
VH: not shown
VL: DIQMTQSPSSLSASVGDRVTITCQASQDIWNYINWYQQKPGKAPKLLIYDASNLKTGVPSRFSGSGSGTDFTFTISSLQPEDIATYYCQQHDDLPPTFGQGTKVEIKR
B16: mAb10967 (antibody, V domains shown)
VH: EVQLVESGGGLVQPGGSLRLSCAASGFTVSSNYMSWVRQAPGKGLEWVSVIYPGGSTFYADSVKGRFTISRDNSKNTLYLQMNSLRAEDTAVYYCARDQRDFAWGQGTLVTVSS
VL: B15 VL with W30S, I33L, K55E, S77G, H91Y, D93N, K103R, V104L
B17: mAb10954 (antibody, V domains shown)
VH: EVQLVESGGGLVQPGGSLRLSCAASGITVSSNYMSWVRQAPGKGLEWVSLIYSGGSTYYADSVKGRFTISRDNSKNTLYLQMNSLRVEDTAVYYCARDHGMAAAGYNYWGQGTLVTVSS
VL: B15 VL with W30N, N31K, I33L, K55E, S76N, I83F, Y87F, H91Y, D93N, T97A
B18: mAb10935 (antibody, V domains shown)
VH: EVQLVESGGGLVQPGGSLRLSCAASGFTVSSNYMSWVRQAPGKGLEWVSLIYSGGSTYYADSVKGRFTISRHNSKNTLYLQMNSLRSEDTAVYYCARVPLGDYYYGMDVWGQGTTVTVSS
VL: B15 VL with W30N, N31K, I33L, K55E, H91S, D93N, P96L, Q100G
B19: mAb10971 (antibody, V domains shown)
VH: B2 VH with V12I, A60S, T68S, F79Y, I87A, G100Y, P101Y
VL: DIQLTQSPSFLSASVGDRVTITCRASQGISTYLAWYQQKPGKAPKLLIYAASTLQSGVPSRFSGSGSGTEFTLTISSLQPEDFATYYCQQLDSYPGLTFGGGTKVEIKR

Key:
[1] = molecular target: SARS-CoV-2 Spike Protein (S1 Subunit, Fc Tag) (Sino 40591-V02H) (SARS-CoV-2, UniProt P0DTC2 16-685); test: Luminex bead assay, antibody supernatant, antigen on microspheres
[2] = molecular target: SARS-CoV-2 Spike Protein (S1 Subunit, His Tag) (Sino 40591-V08H) (SARS-CoV-2, UniProt P0DTC2 16-685); test: as above
[3] = molecular target: SARS-CoV-2 Spike Protein (S1 Subunit, His Tag) (Sino 40591-V08H) (SARS-CoV-2, UniProt P0DTC2 16-685); test: Luminex bead assay, supernatant on antigen microspheres
[4] = molecular target: SARS-CoV-2 Spike Protein (S1 Subunit, Fc Tag) (Sino 40591-V02H) (SARS-CoV-2, UniProt P0DTC2 16-685); test: as above

Row | Binder | Binding signal (MFI) [1] [MFI] | Binding signal (MFI) [2] [MFI] | Binding signal (MFI) [3] [MFI] | Binding signal (MFI) [4] [MFI]
1 | B1 | 8960 | 12200 |  | 
2 | B2 |  |  | 12000 | 8450
3 | B3 | 18900 | 24900 |  | 
4 | B4 |  |  | 24200 | 18600
5 | B5 | 17600 | 22100 |  | 
6 | B6 |  |  | 14200 | 12300
7 | B7 | 16500 | 21200 |  | 
8 | B8 | 19600 | 26400 |  | 
9 | B9 |  |  | 23300 | 16400
10 | B10 | 18200 | 23900 |  | 
11 | B11 |  |  | 20000 | 15000
12 | B12 | 10800 | 14000 |  | 
13 | B13 |  |  |  | 16200
14 | B14 |  |  | 19100 | 16000
15 | B15 | 20600 | 27500 |  | 
16 | B16 |  |  | 21900 | 15800
17 | B17 |  |  | 21300 | 16600
18 | B18 | 20000 | 25600 |  | 
19 | B19 |  |  | 21600 | 17000
